Like-named read-outs stand apart in the source and are kept apart here.
Columns and labels:
[1] = biological target: T1, human CD40 (hCD40), full length, on cells (human, UniProt P25942 21-277); test: cell-based or functional assay
[2] = biological target: T2, CynoCD40-His protein (Acro, Cat. No.: CD0-C52H6) (cynomolgus monkey, UniProt P25942 21-193 (human entry)); test: BLI (Fortebio Octet RED96e), antibody captured on AHC sensor, antigen 1.56-100 nM, 1:1 model
T2 construct: Bought protein; also called cynomolgus monkey CD40 antigen; not shown: His tag
T2 chain: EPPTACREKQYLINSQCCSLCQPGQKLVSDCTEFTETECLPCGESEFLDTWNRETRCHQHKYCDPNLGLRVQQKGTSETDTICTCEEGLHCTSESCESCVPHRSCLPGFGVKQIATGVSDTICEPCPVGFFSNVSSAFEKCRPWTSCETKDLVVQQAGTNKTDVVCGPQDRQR
Experimental: (§1) The affinity of humanized anti-CD40 antibodies to an hCD40-His protein (Acro, Cat. No.: CD0-H5228) and a CynoCD40-His protein (Acro, Cat. No.: CD0-C52H6) was detected by a ForteBio molecular interaction system. Firstly, an AHC biosensor (Fortebio, Cat. No.: 18-5060) was activated, and then immersed in an anti-CD40 antibody solution at a final concentration of 5 μg/mL to capture the antibodies. Serially 2-fold diluted hCD40-His protein and CynoCD40-His protein in a final concentration range of 1.56 nM-100 nM were then […] the AHC biosensor. The response signals were detected in real time on a Fortebio molecular interaction system (Fortebio Octet RED96e) to give association and dissociation curves. After the completion of dissociation in each cycle, the AHC biosensor was regenerated for the next capture; the procedure was repeated until the affinity of the different antibodies for CD40 was determined. The resulting data were analyzed by Fortebio Data Analysis 11.0 software using a 1:1 (Langmuir) binding model to determine the Kₐ (Kₒₙ) and Kd (Kdis) values, and the dissociation constant KD was calculated by KD=Kd/Kₐ. See www.fortebio.com for more detailed detection procedures and related information.

[3] = biological target: T3, hCD40-His protein (Acro, Cat. No.: CD0-H5228) (human, UniProt P25942 21-193); test: as above
T3 construct: Bought protein; also called human CD40 antigen; not shown: His tag
Experimental: as §1

[4] = biological target: T1, human CD40 (hCD40), full length, on …; test: flow cytometry (MFI) on 293T-hCD40-NFκB cells, PE anti-human IgG detection
[5] = biological target: T1, human CD40 (hCD40), full length, on …; test: cell-based or functional assay; remark: listed apart in the source
hCD40-mFc = biological target: T4, hCD40-mFc (human); test: flow cytometry, blocking of hCD40-mFc (2 µg/mL) binding to CHO-K1-hCD40L cells
T4 construct: Prepared in-house in CHO cells; also called human CD40 recombinant protein containing a mouse antibody heavy chain Fc; Human CD40-mFc
Experimental: A CHO-K1-hCD40L cell suspension and a CHO-K1-CynoCD40L cell suspension at a cell concentration of 3×10⁵ cells/mL were separately added into a 96-well U-bottom plate at 100 μL/well. An hCD40-mFc protein at a final concentration of 2 μg/mL (prepared in-house, SEQ ID NO: 64) or a cynoCD40-mFc protein at a final concentration of 2 μg/mL (prepared in-house, SEQ ID NO: 65) was added correspondingly, before serially 2-fold diluted anti-CD40 antibodies in a final concentration range of 312.5 ng/ml-40000 ng/ml were added. The mixture was mixed well, and then incubated at 4° C. for 1 h. The cells were washed with PBS containing 2% of FBS, and then a PE-conjugated goat anti-mouse IgG (H+L) antibody (Abcam, Cat. No.: ab97041) diluted at a volume ratio of 1:500 was added, and the mixture was incubated at 4° C. for 0.5 h. The cells were washed with PBS containing 2% of […], and then resuspended in PBS containing 2% of FBS. The fluorescence signals were detected on a flow cytometer (Sartorius IQue3). The activity of anti-CD40 antibodies to block the binding of CHO-K1-hCD40L cells to an hCD40-mFc protein and CHO-K1-cynoCD40L cells to a cynoCD40-mFc protein was analyzed by the mean fluorescence intensity (MFI) of staining, and the IC₅₀ value was calculated by GraphPad Prism software.

[6] = biological target: T1, human CD40 (hCD40), full length, on …; test: flow cytometry (MFI) on CHO-K1-hCD40 cells, PE anti-human IgG detection
[7] = biological target: T1, human CD40 (hCD40), full length, on …; test: cell-based or functional assay; remark: listed apart in the source
[8] = biological target: T1, human CD40 (hCD40), full length, on …; test: cell-based or functional assay; remark: listed apart in the source

B1: Iscalimab (CFZ533) (antibody, human IgG1, kappa, N297A, V domains shown)
VH: QVQLVESGGGVVQPGRSLRLSCAASGFTFSSYGMHWVRQAPGKGLEWVAVISYEESNRYHADSVKGRFTISRDNSKITLYLQMNSLRTEDTAVYYCARDGGIAAPGPDYWGQGTLVTVSS
VL: DIVMTQSPLSLTVTPGEPASISCRSSQSLLYSNGYNYLDWYLQKPGQSPQVLISLGSNRASGVPDRFSGSGSGTDFTLKISRVEAEDVGVYYCMQARQTPFTFGPGTKVDIRR
notes: also called BM; benchmark
In the case of B1, the “IC50, inhibition of Ramos cell apoptosis induced by CD40L and IL-4” value [1] is reported as 18.3 pM, the “Inhibition, % of Ramos cell apoptosis at 0.064 ng/L (so in the source)” value [1] is reported as 4% and the “Inhibition, % of Ramos cell apoptosis at 0.32 ng/L (so in the source)” value [1] is reported as 12%. The “Inhibition, % of Ramos cell apoptosis at 1.6 ng/L (so in the source)” value [1] was 41%, the “Inhibition, % of Ramos cell apoptosis at 8 ng/L (so in the source)” value [1] was 85% and the “Inhibition, % of Ramos cell apoptosis at 40 ng/L (so in the source)” value [1] was 97%. For the same binder, the “Inhibition, % of Ramos cell apoptosis at 200 ng/L (so in the source)” value [1] was 99%, the “Inhibition, % of Ramos cell apoptosis at 1000 ng/L (so in the source)” value [1] was 98% and the Kd [2] was 0.0559 nM. For the same binder, the koff [2] was 4.3e-05 s⁻¹, the kon [2] was 769000 M⁻¹ s⁻¹ and the Kd [3] was 0.118 nM. For the same binder, the koff [3] was 5.61e-05 s⁻¹, the kon [3] was 474000 M⁻¹ s⁻¹ and the “EC50 (read off the curve)” value [4] was about 10 ng/mL. For the same binder, the “IC50, inhibition of Ramos cell apoptosis induced by CD40L and IL-4” value [5] was 24.7 pM, the “Inhibition, % of Ramos cell apoptosis at 0.0128 ng/mL” value [5] was -26% and the “Inhibition, % of Ramos cell apoptosis at 0.064 ng/mL” value [5] was -24%. For the same binder, the “Inhibition, % of Ramos cell apoptosis at 0.32 ng/mL” value [5] was -10%, the “Inhibition, % of Ramos cell apoptosis at 1.6 ng/mL” value [5] was 5% and the “Inhibition, % of Ramos cell apoptosis at 8 ng/mL” value [5] was 72%. For the same binder, the “Inhibition, % of Ramos cell apoptosis at 40 ng/mL” value [5] was 98%, the “Inhibition, % of Ramos cell apoptosis at 200 ng/mL” value [5] was 100% and the “Inhibition, % of Ramos cell apoptosis at 1000 ng/mL” value [5] was 101%. The IC50 (hCD40-mFc) was 20.6 nM, the EC50 [6] was 0.36 nM and the “MFI value (CD95 on Ramos cells), Fc crosslinking with anti-human IgG Fcγ antibody, 1 µg/mL antibody” value [7] was 12500 MFI. For the same binder, the “MFI value (CD95 on Ramos cells), Fc crosslinking with anti-human IgG Fcγ antibody, 10 µg/mL antibody” value [7] was 12100 MFI and the “IC50 (read off the curve); NF-κB luciferase reporter (RLU), 293T-hCD40-NFκB cells co-cultured 1:1 with CHO-K1-hCD40L cells” value [8] was about 8 ng/mL.

Reference: patent publication US20240383994A1 (CHIA TAI TIANQING PHARMACEUTICAL GROUP, published 2024)
